This note sets out measurements from publication PMC6883840 (Proceedings of the National Academy of Sciences of the …, 2019).

The target in one series is T1, ThrB (homoserine kinase) (Escherichia coli, UniProt P00547).
T1 sequence (P00547 1-310): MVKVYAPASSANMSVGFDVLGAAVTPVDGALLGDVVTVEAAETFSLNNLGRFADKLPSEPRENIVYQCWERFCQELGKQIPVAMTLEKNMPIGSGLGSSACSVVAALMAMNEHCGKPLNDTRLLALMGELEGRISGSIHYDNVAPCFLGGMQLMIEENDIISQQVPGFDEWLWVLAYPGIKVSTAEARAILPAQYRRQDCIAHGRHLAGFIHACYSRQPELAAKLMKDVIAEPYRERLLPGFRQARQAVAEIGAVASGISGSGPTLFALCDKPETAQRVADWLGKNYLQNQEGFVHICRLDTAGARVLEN
Put plainly: […]-NMR of ATP to ADP conversion. Format: biochemical. The conditions noted are these: ATP hydrolysis without second substrate; 37 °C, 24 h.

Substrate in the series “purified protein”: N[C@H](C(=O)O)[C@H](O)CO
Briefly: purified protein. The conditions noted are these: reverse direction: 4-hydroxythreonine to (3R)-3,4-dihydroxy-2-oxobutanoate.

`Nc1ncnc2c1ncn2[C@@H]1O[C@H](COP(=O)(O)OP(=O)(O)OP(=O)(O)O)[C@@H](O)[C@H]1O` [ATP]: the “31P-NMR of ATP to ADP conversion” value at ThrB (homoserine kinase) is listed as “hydrolysis of ATP in the active site of ThrB in the absence of a second substrate”.

B1: SerC (Escherichia coli K-12) (protein)
chain: AQIFNFSSGPAMLPAEVLKQAQQELRDWNGLGTSVMEVSHRGKEFIQVAEEAEKDFRDLLNVPSNYKVLFCHGGGRGQFAAVPLNILGDKTTADYVDAGYWAASAIKEAKKYCTPNVFDAKVTVDGLRAVKPMREWQLSDNAAYMHYCPNETIDGIAIDETPDFGADVVVAADFSSTILSRPIDVSRYGVIYAGAQKNIGPAGLTIVIVREDLLGKANIACPSILDYSILNDNGSMFNTPPTFAWYLSGLVFKWLKANGGVAEMDKINQQKAELLYGVIDNSDFYRNDVAKANRSRMNVPFQLADSALDKLFLEESFAAGLHALKGHRVVGGMRASIYNAMPLEGVKALTDFMVEFERRHG
B1: in “purified protein”, the Km is 2600 ± 700 µM and the kcat is 2.0 ± 0.1 × 10^-5 s^-1.

For orientation: Km means the substrate concentration at which the rate is half of its maximum.
